B1: untagged RNF168 UDM2ΔC (residues 419-462) (domain or fragment, human, UniProt Q8IYW5 419-462, looked up)
chain: EETEINFTQKLIDLEHLLFERHKQEEQDRLLALQLQKEVDKEQM
notes: RNF168, human, residues 419-462 (UDM2ΔC); also called UDM2ΔC (untagged); UAD–MIU2; source: E. coli Rosetta (DE3), purified (Glutathione Sepharose, HRV3C cleavage, ResourceQ, Superdex75)
B2: untagged RNF168 LRM1-UMI (residues 110-166) (domain or fragment, human, UniProt Q8IYW5 110-166, looked up)
chain: LSKPGELRREYEEEISKVAAERRASEEEENKASEEYIQRLLAEEEEEEKRQAEKRRR
notes: Printed as untagged; also called LRM1–UMI (untagged); source: E. coli Rosetta (DE3), purified
B3: His6-fused RNF168 UMI-MIU1 (residues 134-188) (domain or fragment, human, UniProt Q8IYW5 134-188, looked up)
chain: SEEEENKASEEYIQRLLAEEEEEEKRQAEKRRRAMEEQLKSDEELARKLSIDINN
notes: source: E. coli, purified (Ni-NTA, then as UDM2ΔC)
B4: GST-tagged RNF168 UDM2 (residues 419-487) (domain or fragment, human, UniProt Q8IYW5 419-487, looked up)
chain: EETEINFTQKLIDLEHLLFERHKQEEQDRLLALQLQKEVDKEQMVPNRQKGSPDEYHLRATSSPPDKVL
notes: RNF168, human, residues 419-487 (UDM2); source: E. coli Rosetta (DE3), purified (Glutathione Sepharose)
B5: GST-tagged RNF168 MIU2 (residues 436-462) (domain or fragment, human, UniProt Q8IYW5 436-462, looked up)
chain: LFERHKQEEQDRLLALQLQKEVDKEQM
notes: RNF168, human, residues 436-462 (MIU2); source: E. coli Rosetta (DE3), purified (Glutathione Sepharose)
B6: GST-tagged RNF168 UMI (residues 134-166) (domain or fragment, human, UniProt Q8IYW5 134-166, looked up)
chain: SEEEENKASEEYIQRLLAEEEEEEKRQAEKRRR
notes: Cloned into pCold-GST; source: E. coli Rosetta (DE3), purified (Glutathione Sepharose)
B7: GST-tagged RNF168 MIU1 (residues 161-194) (domain or fragment, human, UniProt Q8IYW5 161-194, looked up)
chain: AEKRRRAMEEQLKSDEELARKLSIDINNFCEGSI
notes: RNF168, human, residues 161-194 (MIU1 alone); This construct is not in the methods' list of constructs; its limits stand in the results only; also called MIU1 alone; source: E. coli Rosetta (DE3), purified (Glutathione Sepharose)
B8: GST-tagged RNF168 UDM2ΔC (residues 419-462) (domain or fragment, human, UniProt Q8IYW5 419-462, looked up)
chain: EETEINFTQKLIDLEHLLFERHKQEEQDRLLALQLQKEVDKEQM
notes: RNF168, human, residues 419-462 (UDM2ΔC); also called UAD–MIU2; source: E. coli Rosetta (DE3), purified (Glutathione Sepharose)
B9: GST-tagged RNF168 UDM2ΔC (R439A) (domain or fragment, human, UniProt Q8IYW5 419-462, looked up)
chain: EETEINFTQKLIDLEHLLFEAHKQEEQDRLLALQLQKEVDKEQM
notes: RNF168, human, residues 419-462 (UDM2ΔC) with R439A; source: E. coli Rosetta (DE3), purified (Glutathione Sepharose)
B10: GST-tagged RNF168 UDM2ΔC (E433R) (domain or fragment, human, UniProt Q8IYW5 419-462, looked up)
chain: EETEINFTQKLIDLRHLLFERHKQEEQDRLLALQLQKEVDKEQM
notes: RNF168, human, residues 419-462 (UDM2ΔC) with E433R; source: E. coli Rosetta (DE3), purified (Glutathione Sepharose)
B11: GST-tagged RNF168 UDM2ΔC (L436T) (domain or fragment, human, UniProt Q8IYW5 419-462, looked up)
chain: EETEINFTQKLIDLEHLTFERHKQEEQDRLLALQLQKEVDKEQM
notes: RNF168, human, residues 419-462 (UDM2ΔC) with L436T; source: E. coli Rosetta (DE3), purified (Glutathione Sepharose)
B12: GST-tagged RNF168 LRM1 (L116A)-UMI (domain or fragment, human, UniProt Q8IYW5 110-166, looked up)
chain: LSKPGEARREYEEEISKVAAERRASEEEENKASEEYIQRLLAEEEEEEKRQAEKRRR
notes: source: E. coli Rosetta (DE3), purified (Glutathione Sepharose)
B13: GST-tagged RNF168 LRM1 (Y120A)-UMI (domain or fragment, human, UniProt Q8IYW5 110-166, looked up)
chain: LSKPGELRREAEEEISKVAAERRASEEEENKASEEYIQRLLAEEEEEEKRQAEKRRR
notes: as for B12
B14: GST-tagged RNF168 LRM1-UMI (S142A) (domain or fragment, human, UniProt Q8IYW5 110-166, looked up)
chain: LSKPGELRREYEEEISKVAAERRASEEEENKAAEEYIQRLLAEEEEEEKRQAEKRRR
notes: as for B12
B15: GST-tagged RNF168 LRM1-UMI (residues 110-166) (domain or fragment, human, UniProt Q8IYW5 110-166, looked up)
chain: LSKPGELRREYEEEISKVAAERRASEEEENKASEEYIQRLLAEEEEEEKRQAEKRRR
notes: Cloned into pCold-GST; also called N-terminal part of UDM1; source: E. coli Rosetta (DE3), purified (Glutathione Sepharose)
B16: GST-tagged RNF168 LRM1-UMI (L149A) (domain or fragment, human, UniProt Q8IYW5 110-166, looked up)
chain: LSKPGELRREYEEEISKVAAERRASEEEENKASEEYIQRALAEEEEEEKRQAEKRRR
notes: as for B12

The first assay deals with T1, Met1-linked diUb (M1-Ub2) (human, UniProt P0CG47 1-76; P0CG47 1-76).
T1 construct: ubiquitin, human, first (distal) moiety of the linear diUb; ubiquitin, human, second (proximal) moiety, its Met1 joined to Gly76 of the first; Expressed from a human M1-Ub2 gene as one chain; source: E. coli Rosetta (DE3), pET26b, purified (heat step, ResourceS, Superdex75)
The assay is described as follows: SPR; untagged LRM1-UMI or UDM2ΔC covalently immobilised on CM5 by amine coupling (10 mM sodium acetate pH 4.0 or 4.5); Ub2 species injected; HBS-P, 25 °C; steady-state fit, 1:1 model. Conditions: both partners purified.
Turning to B1, the Kd (commonly the equilibrium constant for the complex coming apart) was 145 µM.
Turning to B2, the Kd came to 200 µM.

The target of another assay is T1, Met1-linked diUb (M1-Ub2). The assay is described as follows: pull-down; 100 µg His6-fused RNF168 on Ni-NTA beads, 15 µg Ub2 species, 25 mM Tris-HCl pH 8.0, 20 mM imidazole, 0.1% Triton X-100, 100 mM NaCl, on ice 2 h; SDS-PAGE, Coomassie (Supplementary Fig. 1a). The conditions noted are these: both partners purified.
Consider B3, for which the binding result is “binds”.

In a further assay the target is T1, Met1-linked diUb (M1-Ub2). The assay is described as follows: SPR; GST-fused RNF168 domains captured by immobilised anti-GST antibody on CM5 chip (1000-1500 RU); Ub2 species injected 60 s at 10 µL per min; HBS-P (10 mM HEPES-Na pH 7.4, 150 mM NaCl, 0.05% P20), 25 °C; steady-state fit, 1:1 model. Conditions: both partners purified. For orientation: SPR reads the build-up and loss of mass on a sensor chip optically.
Turning to B4, the Kd is 238 µM.
The same measure, in the same setting: to B5 belongs 235 µM.
Take B6: binding was characterised by a dissociation constant (Kd) of 306 µM.
Still for that read-out and setting: to B7 belongs 233 µM.
The same measure, in the same setting: the figure for B8 is 221 µM.
B9 yielded a Kd of 495 µM.
Still for that read-out and setting: to B10 belongs 214 µM; to B11, 160 µM.
The molecule B12 yielded a Kd of 206 µM.
Regarding B13, the Kd was 236 µM.
B14 displayed a dissociation constant Kd of 965 µM.
With B15, the Kd was found to be 231 µM.
As for B16, the Kd stood at 1150 µM.

The values are drawn from PMC5766498 (Nature Communications, 2018).
